# System: Escherichia coli TOP10
# Assay: shrunken log2 fold change of peptide-encoding DNA abundance (4.5 h post-induction vs induction); higher = less antimicrobial activity (less host growth inhibition)
# Settings: time post-induction: 4.5 h; library: site-saturation at positions 5, 18, 19, 20
# 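Also: peptides expressed intracellularly from a pBAD plasmid library in pooled LB shake-flask culture, induced with 0.3% L-arabinose, DNA abundance read by NGS, three biological replicates, DESeq2 with apeglm shrinkage.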
row,Sequence,shrunken log2 fold change
1,RRIRRRPPRLPRPRPRPQLHPRP,-0.00676
2,RRIRERPPRLPRPRPRPSEAPRP,0.134
3,RRIRERPPRLPRPRPRPAVWPRP,0.421
4,RRIRKRPPRLPRPRPRPWSFPRP,0.121
5,RRIRNRPPRLPRPRPRPWLNPRP,-0.00264
6,RRIRWRPPRLPRPRPRPALRPRP,0.243
7,RRIRQRPPRLPRPRPRPSWDPRP,-0.16
8,RRIRRRPPRLPRPRPRPSSTPRP,0.197
9,RRIRIRPPRLPRPRPRPSYNPRP,-1.15
10,RRIRYRPPRLPRPRPRPVCCPRP,-0.644
11,RRIRERPPRLPRPRPRPMIRPRP,0.0011
12,RRIRCRPPRLPRPRPRPNSPPRP,-0.217
13,RRIRIRPPRLPRPRPRPISCPRP,-0.0154
14,RRIRKRPPRLPRPRPRPRGEPRP,0.764
15,RRIRDRPPRLPRPRPRPTMAPRP,0.695
16,RRIRHRPPRLPRPRPRPFLWPRP,-0.353
17,RRIRPRPPRLPRPRPRPTDPPRP,0.0787
18,RRIRDRPPRLPRPRPRPMETPRP,-0.00149
19,RRIRSRPPRLPRPRPRPGEDPRP,0.106
20,RRIRNRPPRLPRPRPRPYMHPRP,-0.671
21,RRIRYRPPRLPRPRPRPIFIPRP,-0.631
22,RRIRTRPPRLPRPRPRPPMEPRP,-0.00995
23,RRIRNRPPRLPRPRPRPITKPRP,-0.113
24,RRIRWRPPRLPRPRPRPICGPRP,0.0975
25,RRIRMRPPRLPRPRPRPTCEPRP,0.745

row,Sequence,shrunken log2 fold change
1,RRIRLRPPRLPRPRPRPNCWPRP,0.388
2,RRIRTRPPRLPRPRPRPGTFPRP,-0.116
3,RRIRCRPPRLPRPRPRPERAPRP,0.675
4,RRIRSRPPRLPRPRPRPRSRPRP,0.0341
5,RRIRARPPRLPRPRPRPEVSPRP,0.431
6,RRIRSRPPRLPRPRPRPRGHPRP,-0.0222
7,RRIRFRPPRLPRPRPRPWTCPRP,-0.126
8,RRIRTRPPRLPRPRPRPTVEPRP,-0.152
9,RRIRWRPPRLPRPRPRPDAKPRP,0.0403
10,RRIRTRPPRLPRPRPRPGCTPRP,-0.0907
11,RRIRFRPPRLPRPRPRPMVKPRP,-0.219
12,RRIRTRPPRLPRPRPRPEWVPRP,0.457
13,RRIRGRPPRLPRPRPRPYHHPRP,-0.176
14,RRIRGRPPRLPRPRPRPCHHPRP,-0.00543
15,RRIRDRPPRLPRPRPRPCCKPRP,0.0846
16,RRIRQRPPRLPRPRPRPMTPPRP,0.126
17,RRIRTRPPRLPRPRPRPKYIPRP,-0.748
18,RRIRWRPPRLPRPRPRPWISPRP,-0.124
19,RRIRARPPRLPRPRPRPDLRPRP,0.0309
20,RRIRDRPPRLPRPRPRPTDVPRP,-0.0358
21,RRIRDRPPRLPRPRPRPYKYPRP,-0.661
22,RRIRFRPPRLPRPRPRPSSYPRP,-0.676
23,RRIRARPPRLPRPRPRPEQSPRP,0.119
24,RRIRHRPPRLPRPRPRPQQDPRP,-0.147
25,RRIRVRPPRLPRPRPRPDQWPRP,-0.0427

row,Sequence,shrunken log2 fold change
1,RRIRLRPPRLPRPRPRPPMDPRP,0.0462
2,RRIRQRPPRLPRPRPRPTRHPRP,0.434
3,RRIRQRPPRLPRPRPRPMVIPRP,-0.105
4,RRIRHRPPRLPRPRPRPQLKPRP,0.114
5,RRIRVRPPRLPRPRPRPCPVPRP,-0.0687
6,RRIRCRPPRLPRPRPRPLDVPRP,-0.41
7,RRIRTRPPRLPRPRPRPNKCPRP,-0.314
8,RRIRERPPRLPRPRPRPQPHPRP,-0.261
9,RRIRTRPPRLPRPRPRPHVGPRP,0.0439
10,RRIRDRPPRLPRPRPRPGTTPRP,0.427
11,RRIRDRPPRLPRPRPRPPWYPRP,-0.0741
12,RRIRIRPPRLPRPRPRPQRGPRP,0.0568
13,RRIRRRPPRLPRPRPRPNDPPRP,0.0958
14,RRIRGRPPRLPRPRPRPFPQPRP,0.717
15,RRIRVRPPRLPRPRPRPLFFPRP,-0.121
16,RRIRTRPPRLPRPRPRPIPLPRP,-0.683
17,RRIRWRPPRLPRPRPRPFETPRP,0.0441
18,RRIRQRPPRLPRPRPRPDIFPRP,-0.104
19,RRIRCRPPRLPRPRPRPVKKPRP,0.0604
20,RRIRPRPPRLPRPRPRPIVYPRP,0.175
21,RRIRQRPPRLPRPRPRPNKKPRP,-0.0406
22,RRIRQRPPRLPRPRPRPGVEPRP,0.0735
23,RRIRERPPRLPRPRPRPRGYPRP,-0.1
24,RRIRARPPRLPRPRPRPYMPPRP,-0.829
25,RRIRTRPPRLPRPRPRPNRPPRP,0.00512
